Results reported in US20110300113A1, “Death Receptor CD95 Controls Neurogenesis of Adult Neural Stem Cells in Vivo and in Vitro” (DEUTSCHES KREBSFORSCHUNGSZENTRUM, priority 2006, published 2011).

Legend:
[1] = tested on: human neural progenitor cells; experiment: Neuronal differentiation (β-III-tubulin) of human neural progenitor cells after growth factor removal; type: cell-based
Method: Immunostainings. Immunohistochemistry and Immunocytochemistry were performed as previously described. Primary antibodies used were anti GFP (chicken) (Ayes Labs) 1:1000, anti NeuN (mouse), (Chemicon) 1:200, anti β-III-tubulin (mouse) (Chemicon 1:200), anti GFAP (mouse) (Chemicon 1:200), active-β-Catenin (mouse) (P-Ser37 or P-Thr41; 1:800) (Upstate), phosphorylated GSK3β (P-Ser9-GSK3β, 1:1000). The mouse Pax6 antibody developed by A. Kawakami was obtained from the Developmental Studies Hybridoma Bank developed under auspices of the NICHD and maintained by The University of Iowa, Department of Biological Sciences, Iowa City, Iowa 52242. Secondary antibodies used were goat anti-rabbit alexa 488 (Molecular Probes) 1:500, goat anti-mouse rhodamine X (Dianova) 1:200, Dapi (Sigma) 1:3000, donkey anti-chicken FITC (Dianova) 1:200.
Human neural progenitor generation and culture. The human ES cell line H9.2 was cultivated on mitotically inactivated mouse embryonic fibroblasts (MEFs) in Knockout Dulbecco's Modified Eagle Medium (KO-DMEM, Gibco) containing 20% Knockout Serum Replacement, 1% non-essential amino acids, 1 mM I-glutamine, 0.1 mM β-mercaptoethanol (all from Gibco), and 4 ng/ml human basic fibroblast growth factor (FGF-2, Invitrogen). Cells were routinely passaged every four days by treatment with 100 units collagenase IV (Gibco) for one hour. […]

hippocampal NSCs = experiment: β-III-tubulin expression in hippocampal neural progenitor cells; type: cell-based, mouse; settings: neural progenitors isolated from the HC
Method: For staining of intracellular markers, cells were harvested, fixed with 4% PFA for 10 min on ice, washed and permeabilized using 0.1% Saponin (Sigma-Aldrich) in PBS with 10% FCS (SAP). Cells were incubated with primary antibody or isotype for 30 min on ice. Cells were washed three time with SAP and incubated with secondary antibody for 30 min on ice. Cells were washed again three times with SAP and analysed. Antibodies used were: anti β-III-tubulin (Chemicon) 1:100, anti GFAP (Chemicon) 1:100 and isotype mouse IgG1 (Sigma) 1:20. Secondary antibody was goat anti-mouse PE 1:100 (Dianova). To quantify DNA fragmentation, cells detached with trypsin were centrifuged, washed and fixed with 70% ethanol at −20° C. for 1 h. Fixed cells were resuspended in a hypotonic lysis buffer (0.1% sodium citrate and 0.1% Triton X-100) containing […] of propidium iodide, incubated at 4° C. overnight. After final washings, all samples were analysed using a FACS-Calibur (Becton Dickinson) and CellQuest Software (Becton Dickinson).
Mouse adult neural stem cell culture. NSCs were isolated as previously described^30. Briefly, 6 week old female C57BL6 mice were sacrificied and tissue from hippocampus, SVZ and spinal cord was dissected out. […]

neural progenitor cells = experiment: Proliferation rate of neural progenitor cells; type: cell-based, mouse; settings: compared to untreated cells; data not shown
Method: Mouse adult neural stem cell culture. NSCs were isolated as previously described^30. Briefly, 6 week old female C57BL6 mice were sacrificied and tissue from hippocampus, SVZ and spinal cord was dissected out. The tissue was digested, washed and cultured in Neurobasal Medium (Invitrogen Karlsruhe, Germany) supplemented with B27 (Invitrogen), Penicillin-Streptomycin (Invitrogen), Glutamax (Invitrogen), Heparin (2 μg/ml) (Sigma) and the growth factors EGF (20 ng/ml) (Promocell) and bFGF (20 ng/ml) (Promocell). After 7 days in culture neurospheres were harvested by centrifugation, dissociated using trypsin (Invitrogen) and replated. Cells were passaged once to twice weekly. Cells used for experiments were passaged between 10 to 15 times. Cells were stimulated with 10 μM Retinoic Acid or 1 activation unit of CD95L-T4. One activation unit was defined as the amount of CD95L-T4 required to increase phosphorylation of GSK3β. Activation units were defined freshly for each batch of CD95L-T4 and varied from 5-40 ng/ml.

B1: CD95L: the ligand for CD95 (APO-1/Fas) (protein, listed as Homo sapiens)
chain: MQQPFNYPYPQIYWVDSSASSPWAPPGTVLPCPTSVPRRPGQRRPPPPPPPPPLPPPPPPPPLPPLPLPPLKKRGNHSTGLCLLVMFFMVLVALVGLGLGMFQLFHLQKELAELRESTSQMHTASSLEKQIGHPSPPPEKKELRKVAHLTGKSNSRSMPLEWEDTYGIVLLSGVKYKKGGLVINETGLYFVYSKVYFRGQSCNNLPLSHKVYMRNSKYPQDLVMMEGKMMSYCTTGQMWARSSYLGAVFNLTSADHLYVNVSELSLVNFEESQTFFGLYKL
modifications: CHAIN (1)..(281) This feature is the amino acid sequence for CD95L protein. CD95L is a ligand for CD95. CD95 is APO-1/Fas and a member of the tumor necrosis factor receptor superfamily.
How did the “number of neurons / β-III-tubulin positive cells” value [1] turn out when B1 was run?
Its value is “strikingly increased number of neurons”.

What about the β-III-tubulin expression (hippocampal NSCs) of the same molecule?
Its β-III-tubulin expression is “increase in β-III-tubulin expression”.

And the proliferation rate (neural progenitor cells)?
The proliferation rate was “did not lead to significant changes in the proliferation rate”.
